This is an account of results in publication PMC9517163 (2022).

The term Kd denotes a measure of binding affinity in units of concentration.

Numbering of substitutions follows the chain as printed.

This assay addresses SARS-CoV-2 receptor-binding domain (RBD), prototype (SARS-CoV-2, UniProt P0DTC2). Kind of assay: SPR. In general terms: Surface plasmon resonance follows binding to a sensor surface in real time, without labels.

B1: dolphin ACE2, mFc-tagged (Fc fusion)
chain: QSATEERAKTFLQKFDREAEDLSYQSSLASWNYNTNITDENVQKMNAAGAKWSAFYEEQSRIAKTYPLEEIRNLTLKRQLQVLQQSGTSVLSADKSKRLNAILSTMSTIYSSGKVLDPNTQESLVLEPGLDDIMENSKDYNRRLWAWEGWRAEVGKQLRPLYEEYVVLENEMARANNYEDYGDYWRGDYEVTGAGDYDYSRDQLIRDVERTFAEIKPLYEQLHAYVRAKLMDAYPSRISPTGCLPAHLLGDMWGRFWTNLYPLTVPFGERPSIDVTKEMQNQSWDAKRIFKEAEKFFVSIGLPNMTQGFWDNSMLTEPGDGRKVVCHPTAWDLGKGDFRIKMCTKVTMDDFLTAHHEMGHIQYDMAYATQPYLFRNGANEGFHEAVGEIMSLSAATPHYLKALGLLPPDFYEDSATEINFLLKQALTIVGTLPFTYMLEKWRWMVFKGEIPKEQWMQKWWEMKREIVGVVEPLPHDETYCDPACLFHVAEDYSFIRYYTRTIYQFQFHEALCQTAKHEGPLYKCDISNSTEAGQRLLQMLHLGKSEPWTSALERIVGVKTMDVKPLLNYFEPLLTWLKGQNRNSFVGWRTDWTPYSNQSIKVRISLKSALGEKAYEWNDNEMYLFRSSVAYAMREYFSKVRNKTIPFGEKDVWVSDLKPRISFNFFVTSPKNMSDIIPRTEVEEAIRMSRGRINDAFRLDDSSLEFLGVQPTLAPPYEPPVT
As for B1, binding was characterised by a dissociation constant (Kd) of 562 nM.

B2: minke whale ACE2, mFc-tagged (Fc fusion)
chain: QSTTEEQAKTFLQKFDHEAEDLSYRSSLASWNYNTNITDENVQKMNAARAKWSAFYEEQSRIAKTYPLEEIQNLTLKRQLQALQQSGTSVLSADKSKRLNTILNTMSTIYSSGKVLDPNTQEYLVLEPGLDDIMENSEDYNRRLWAWEGWRAEVGKQLRPFYEEYVVLENEMARANNYEDYGDYWRGDYEVTGADGYDYSRNQLIADVERTFAEIKPLYEQLHAYVRAKLMDAYPSRISPTGCLPAHLLGDMWGRFWTNLYPLTVPFGEKPSIDVTKEMQNQSWDAKRIFKEAEKFFVSIGLPNMTQEFWVNSMLTEPGDGRKVVCHPTAWDLGKGDFRIKMCTKVTMDDFLTAHHEMGHIQYDMAYATQPFLLRNGANEGFHEAVGEIMSLSAATPHYLKALGLLPPDFYEDNVTEINFLLKQALQIVGTLPFTYMLEKWRWMVFKGEIPKEQWMQKWWEMKREIVGVVEPLPHDETYCDPACLFHVAEDYSFIRYYTRTIYQFQFHEALCQTAKHEGPLYKCDISNSTEAGQRLLQMLHLGKSEPWTLALENIVGVKTMDVKPLLNYFEPLLTWLKEQNRNSPVGWSTDWTPYSDQSIKVRISLKSALGEKAYEWNDNEMYLFQSSVAYAMREYFSKVRNETIPFGEKDVWVSDLKPRISFNFFVTTPKNVSDIIPRTEVEEAIRMSRGRINDAFRLDDNSLEFLGIQPTLGPPYEPPVT
B2 had a Kd of 175 nM.

B3: sperm whale ACE2, mFc-tagged (Fc fusion)
chain: QSTTEEQAKTFLQKFDHEAEDLSYQSSLASWNYNTNITDENVQKMNAARAKWSAFYEEQSRTAKTYPLEEIQNLTLKRQLQALQQSGTSVLSADKSKRLNTILNTMSTIYSSGKVLDPNTQECLVLEPGLDDIMENSEDYSRRLWAWEAWRAEVGKQLRPLYEEYVVLENEMARANNYEDYGDYWRGDYEVTGAGDYDYSRDQLITDVERTFAEIKPLYEQLHAYVRAKLMDAYPSRISPTGCLPAHLLGDMWGRFWTNLYPLTVPFGEKSSIDVTKEMRNQSWDAKRIFKEAEKFFVSIGLPNMTQEFWDNSMLTEPGDGRKVVCHPTAWDLGKGDFRIKMCTKVTMDDFLTARHEMGHIQYDMAYATQPYLLRNGANEGFHEAVGEIMSLSAATPHYLKALGLLPPDFYEDSATEINFLLKQALKIVGTLPFTYMLEKWRWMVFKGEIPKEQWMQKWWEMKREIVGVVEPLPHDETYCDPACLFHVAEDYSFIRYYTRTIYQFQFHEALCQAAKHEGPLYKCDISNSTEAGQRLLQMLHLGKSEPWTSALENIVGVKTMDVKPLLNYFEPLLTWLKDQNRNSFVGWSTDWTPYSDQSIKVRISLKSALGEKAYEWNDNEMYLFRSSVAYAMREYFSKVRNETIPFGEEDVRVGDLKPRISFTFFVTSPKNVSDIIPRTEVEEAIRMSRGRINDAFRLDDNSLEFLGIEPTLGPPYEPPVT
B3: the Kd was determined as 234 nM.

B4: fur seal ACE2, mFc-tagged (Fc fusion)
chain: RSTTEDLVKTFLEKFNSEAEELSYQSSFASWNYNTNITDENVQKMNDAGAKWSAFYEEQSKQAKTYPLEEIQDSTVKRQLQALQHSGSSVLSVDKSQRLNTILNAMSTIYSTGKACNPNNPQECLLLEPGLDDIMANSRDYNERLWAWEGWRSEVGKQLRPLYEEYVALKNEMARANNYEDYGDYWRGDYEEEWTNGYNYSRDQLIKDVEQTFTQIQPLYEHLHAYVRAKLMDTYPSHISPTGCLPAHLLGDMWGRFWTNLYPLTVPFGQKPNIDVTDTMVNQSWDARRIFEEAEKFFVSVGLPNMTQGFWENSMLTEPGDSRKVVCHPTAWDLGKHDFRIKMCTKVTMDDFLTAHHEMGHIQYDMAYAAQPFLLRNGANEGFHEAVGEIMSLSAATPKHLKNIGLLPPGFSEDNETDINFLFKQALTIVGTLPFTYMLEKWRWMVFKGEIPKEQWMKKWWEMKRDLVGVVEPLPHDETYCDPASLFHVANDYSFIRYYTRTIYQFQFQEALCQIAKHEGPLHKCDISNSSEAGQTLLQMLKLGRSKPWTLALYRVVGAKNMDVRPLLNYFDPLFTWLKEQNRNSFVGWNTDWSPYADQSIKVRISLKSALGEKAYEWNDNEMYLFRSSIAYAMREYFSKVKKQTIPFVEDNVWVNNLKPRISFTFFVTSPGNMSDIIPRADVEEAIRMSRGRINDAFRLDDNSLEFLGIQPTLEPPYQPPVT
B4 gave a Kd of 129 nM.

B5: sea lion ACE2, mFc-tagged (Fc fusion)
chain: B4 chain with F28L, V93A, I239M, K643N, T645M
As to B5, the Kd stood at 171 nM.
